The nature of this series: yeast display, Sf9 membrane polyspecificity reagent, FACS + sequencing; frameworks hold sequencing errors. The essentials:
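Sorting gates, low and high (top ~1%), were placed on anti-HA fluorescence to track expression and on streptavidin fluorescence to track reagent binding. A clone's polyreactivity label is taken from the gate it came out of. The reagent was 10% biotinylated, detergent-solubilized Sf9 membrane, applied for 1 hour at 4 °C to galactose-induced yeast display cells.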
With “QVQLVESGGGLVQAGGSLRLTCAGSGSTYGKYAIGGYRQAPGKERQLVAAISYRGGRTFYADSVKGRFTISRDNAKNTVFLQMKSLKPEDTAVYYCAAYPGVSRGTGPRRYDYWGQGTQVTVSS”, the “polyreactivity (PSR sort gate)” value is “high polyreactivity”.
In the case of “QVQLVESGGGLVQAGGSLRLSCASSGSIFSTYAMGWYRQAPGKEMELVATIRRGGSTYYADSVKGPFTISRDNAKNTVYLQMNSLKPEDTELYYCAAAGGRFIRYGYWGQGTQVTVSS”, the “polyreactivity (PSR sort gate)” value is reported as “high polyreactivity”.
As to “QVQLVESGGGLVQAGGSLRLSCAASGGTFARNAMGWYRQAPGKERELVATITRRAGNTYYADSVKGRFTISRDNAKNTVYLEMNSLKREDTAVYYCAGVATWGFYPYLIPEVGNDYWGQGTQVTVSS”, the “polyreactivity (PSR sort gate)” value is “high polyreactivity”.
With “QVQLVESGGGLVQAGGSLRLSCAASGITFEGYAMGWYRQAPGKERELVAAIRSSGTSTYYADSVKGRFTISRDNAKNTVYLQMYSLKPEDTAVYYCNRARSSSRYDYWGQGTQVTVSS” the entry was “low polyreactivity”; with “QVQLVESGGGLVQAGGSLRLSCAASGRTFYSNAMGWYRQAPGKERELVAAISRRGGRTYYADSVKGRFTISRDNAKNTVYLQMNSLKPEDTAVYYCAADAYLYQPEDYYYWGQGTQVTVSS”, “high polyreactivity”; with “QVQLVESGGGLVQAGGSLRLSCAASGSTFYKYAMGGYRQAPGKERELVAAISTRGGSTYYADSVKGRFTISRDNAKNTVYLQMNSLKPEDTAVYYCAADGSGGHDDYWGQGTQVTVSS”, “high polyreactivity”.
With “QVHLVESGGGLVQAGGSLRLSCAASGITFYRYAMGWYRLAPGTERELVAAISSSGGSTYYADSVKGRFTISRDNAKNTVYLQMNSLKPEDTAVYYCAAQYNVPRDKYYFWGQGTQVTVSS” the entry was “high polyreactivity”.
With “QVQLVESGGGLFQAGGSLRLSCAASGSTFRHYDMAWYRQAPGKERELVAVISWGGTSTYYADSVKGRFTISRDNAKNTVYLQMHSLKPEDTGVYYCNKAYFPIFKGYEMYYWGQGTQVTVST”, the “polyreactivity (PSR sort gate)” value is “low polyreactivity”.
In the case of “QVQLVESGGGLVQAGGSLRLSCAASGFTFYHYAMGWYRQAPGKEREFVAAISASGGSTYYADSVKGRFTISRDNAKNTVYLQMNSLKPEDTAVYYCNARYYYFSVRYKYDFNYWGQVTQVTVSS” it was “high polyreactivity”.
For the sequence “QVQLVESGGGLVQAGGSLRLSCAASGRIFFYYAMGWYRQAPGKEREFVAAISTSSGSTYYADSVKGRFTISRDNAKNTVYLQMNSLKPEDTAVYYCAADEVYSRGIWPVEDDYWGQGTQVTVSS”, the “polyreactivity (PSR sort gate)” value was “low polyreactivity”.
In the case of “QVQLEESGGGLVQAGGRLRLSCAASGSTFRNYAMGWNITAAGKERELVAAISTNGGRTFYADSVKGRFTISRDNAKNTVYLQMNSLKPEDNAVYYCAAEYGLYAPGYYYWGQGTQVTVSS” it was “low polyreactivity”; in that of “QYQLVESGGGLVQAGGSLRLSCAASGFIFSTNAMGWYRQAPGKERELVAAISRRGGNTYYADSLKGRFTISRDNAKNTVYLQMNSLKPEDTAVYYCAKRGVYGYRYYYWGQGTQVTVSS”, “high polyreactivity”; in that of “QVQLVESGGGLVQAGGSLRLSCAASGFIFYYYAMGWYRQAPGKERELVAVLAVSGSSTYYADSEKGRFTISRDNAKNIVFLQKNSLKPEDTAVYYCNADFWPYTGKYDYWGQGTQVTVSS”, “low polyreactivity”.
In the case of “QVQLVESGGGLVQAGGSLRLSCAASGSIFDINAMGWYRQAPWKERELVAAISLSAGSTYYADSVKGRFTISRDNSKNTVYFQMNSLYPDDAAVFYCNADGWYGYWGQVTQVTVSS” it was “low polyreactivity”; in that of “QVQLVESGGGLVQAGGSLRLSCAASGSIYTHNAMGWSRQAPGKERELVAAISSGGSTNYADSVKGRFTISRDNAKNTVYLQMNSLKPEDTAVYYCAKSIDGWYWRRRRYDYWGQGTQVTVSS”, “low polyreactivity”; in that of “QVQLVESGGVLDQAGRSLRLSCAASGRTFNRYAMGWYRQAPGKERDLVAAISSSGGSTYYADSVKGRFTISRDNAKNTVYLQMNSLKPEDTAVYYCNKGQYSHLNSYGDDYWGQGTQVTVSS”, “high polyreactivity”.
Consider “QVQLVESGGGLVQAGGSLRLSCAASGFTFFIYAMGWYSQAPGKEREFVAAITGSGGSTYYADSVKGRFTISRDNAKNTVYLQMNSLKPEDTAVYYCNTAGYDYYSTQAYDYWGQGTQVTVSS”, for which the “polyreactivity (PSR sort gate)” value is recorded as “high polyreactivity”.
Consider “QVQLVESGGGLVQAGGSLRLSCAASGFIFGKYAMGWYRQAPRKERELGAAISKSGGSTYYADSVKGRFTISRDNAKNTVYLQMNSLKPEDTAVYYCAARSLGHYGSWGQGTQVTVSS”, for which the “polyreactivity (PSR sort gate)” value is on record as “high polyreactivity”.
In the case of “QVQLVESGGGLVQAGGSLRLSSAASGSIFSQNAMVWYTQAPGKERELVASISSGDSTTYADSVKGRFTISRDNAKNTVYLQMNSLKPEDTAVYYCNAYRYNALPWRYVGYDYWGQGTQVTVSS” it was “low polyreactivity”; in that of “QVQLVESGGGLVQAGGSLRLSCAASGRIFFYYAMGWYRQAPGKEREMVAAISWSGSSTYYADSVKGRFTISRDNAKNTVYLQMNSLKPEDTAVYYCAADYYIDYFYYDYWGQGTQVTVSS”, “high polyreactivity”; in that of “QVQLVESGGGLVQAGGSLRLSCAASGRIDVSNAMGWYRQAPGKERELVAAITRTGASTYYADSVKGRCTISRDNAKNNVYVQMNSLKPEDSAVYYSDDVWGWPYWVYRYDYWGQGTQVTVSS”, “high polyreactivity”.
“QVQLVESGGGLVQARGSLRLSCAASGSTFRINAMGWYRQAPGKERELVAAITSGGSTKYADSVKGRFTISRDNAKNTVYLQMYILKPADTAVYYCNKQGYPFRYFAWYPGYNYWGQGTQVTVSS”: the “polyreactivity (PSR sort gate)” value is on record as “low polyreactivity”.
With “QVQLVESGGGLVQAGGSLRLSCAASGSIFYGYAMGWYRQAAGNERELVAAITTGGSTYCADSVKGRFTISRDNAKNTVYLQMNSLKPEDTAVYYCAAKYYTGGSFEMYYWGQGNQVTVSS” the entry was “high polyreactivity”; with “QVQLVESGGGLVQAGGSLRLSCAASGSTFWPYAMGWYRQAPGKERELVAAIRVIGGSKYYADSVKGRFTISRDNAKNTVYLQMNSLKPEDTAVYYCNAYRPGGARFYARYRYDYWGQGTQVTVSS”, “low polyreactivity”.
Consider “QVQLVESGGGLVQAGGSLRLSCAASGIIFDGYAMGWYRQAPGKEREFVAAITSGGGSTSYADSVKGRFTISRDNAKNTVYLQMNSLKPEDTAVYSCAARSNRFYVRQRYGYWGQGTQVTVSS”, for which the “polyreactivity (PSR sort gate)” value is given as “high polyreactivity”.
On to “QVQLVESGGGLVQAGGSLRLSCAASGSLFGRYTMGWYRQATGKDREFVAAIDRVGITNYADSVKGRFTISRDNAKNTVYLQMNSLKPEDTAVYYCAADYGAIRPRDFIEVPGHYDYWGQGTQVTVSS”, for which the “polyreactivity (PSR sort gate)” value is on record as “low polyreactivity”.
With “QVQLVESGGGLVQAGGSLRLSCAASGFIFSKYAMGWYRQAPGKERELVAAISWNGGSTYYADSVKGRFTISRDNAKNTVYLQMNSLKPEDTAVYYCNTGYGRIRRPGALDYWGQGTQVTVSS” the entry was “high polyreactivity”; with “QVQLVESGGGLVQAGGSLRLSCAASGSIFYRNAMGWYRPAPGKERELVAAISSDGSTNYADSVKGRFTISRDNAKNTVYLQMNSLKPEDTAVYYCAVDRYRYPFDYWGQGTQVTVSS”, “low polyreactivity”.
In the case of “QVHLVESGGGLVQAGGSLRLSCAASGGIFYINSMGWYRQAPGKERELVAAITGGASTYYADSVKGRFTISRDNAKNTVYLQMNSLNPEDTAVYYCAARPSSRRVYPAYLYGYWGQGTQVSVSS” it was “high polyreactivity”.
Take “QVQLGESGGGLVQAGGSLSLSCAASGNTFVSNAMGWYRQATGKERELVATISSGAHTYYADSVKGRFTISRDNAKNTVYLQMKSLKPEDTAVYYCASTSYGYWVGYIPEVDFWGQGTQVSVSS”: the “polyreactivity (PSR sort gate)” value is listed as “low polyreactivity”.

Source of the values: the nanobody polyreactivity screen of Harvey et al. (2022).
